Data: patent US6387642

Key:
[1] = molecular target: Cdc2-cyclin B1 complex containing the Y15F mutant of Xenopus Cdc2
[2] = molecular target: Purified recombinant Cdc2-cyclin B1 complex containing wild-type Xenopus Cdc2
[3] = molecular target: Cdc2-cyclin B1 complex containing the triple mutant T14A,Y15F,N133A of Xenopus Cdc2
[4] = molecular target: Cdc2-cyclin B1 complex containing the T161A mutant of Xenopus Cdc2
[5] = molecular target: Cdc2-cyclin B1 complex containing the T14A mutant of Xenopus Cdc2
[6] = molecular target: Cdc2-cyclin B1 complex containing the T14A,Y15F double mutant of Xenopus Cdc2
[7] = molecular target: Cdc2-cyclin B1 complex containing the Y15F mutant of Xenopus Cdc2 (Xenopus); assay: cell-based or functional assay
[8] = molecular target: Cdc2-cyclin B1 complex containing the catalytically inactive N133A mutant of Xenopus Cdc2 (Xenopus); assay: cell-based or functional assay
[9] = molecular target: Cdc2-cyclin B1 complex containing the T14A mutant of Xenopus Cdc2 (Xenopus); assay: cell-based or functional assay
[10] = molecular target: Purified recombinant Cdc2-cyclin B1 complex containing wild-type Xenopus Cdc2 (Xenopus); assay: cell-based or functional assay
[11] = molecular target: Cdc2-cyclin B1 complex containing the catalytically inactive N133A mutant of Xenopus Cdc2

B1: Recombinant histidine-tagged Myt1 purified from baculovirus-infected Sf9 cells (enzyme, not shown: small tags and cut ends)
chain: MPVPGDDMGETPLTRTPIPMPAYFSQAEQSFSLKKRGRSLCYTLPPRPPVKSALPVSRIFPNKQRSWSQPRPQSVSFRSPQNKTPASKLYDQSKGDTFFKQCFKSICKLGRGSFGEVYKVQSLEDGCFYAVKRSVSPFRGESDRQRKLQEVRKHERVGEHPNCLRFVRAWEEKRMLYLQTELCAGSLQQHSEEFAGSLPPRRVWNITCDLLHGLKHLHDRNLLHLDIKPANVFISFSGVCKLGDFGLMVELDGTEGSGEAQEGDPRYMAPELLDGIFSKAADVFSLGMSLLEVACNMELPKGGDGWQQLRQGHLPTEFTSDLPPDFLKVLSAMLEPDYRRRATVDWLLSLPAIRNAERWRMVTLAQERTLGKIIAVYQFIVWLLSFVFQWLNRPVIGFLHYCGLRALPRSPPCSPFPNHLGESSFSSDWDDESLGDDVFEVPPSPLATHRNLTYHGQELIGRHSPDLLSRPSLGSTSTPRNLSPEFSMRKRSALPLTPNVSRISQDSTGKSRSPSTSHSSSGFVDAEVQRTLFLPRNLLGMFDDATEQ
For B1, the “phosphorylation of Cdc2 mutant, autoradiography” value (“phosphorylation of Cdc2 mutant” below) [1] was “Myt1 can phosphorylate both the TI4A (Thr^14 changed to Ala) and Y15F (Tyr^15 changed to Phe) mutants of Cdc2”, the “reduction of Cdc2-associated histone H1 kinase activity” value (“reduction” below) [1] was “a large reduction in activity (60 and 50%, respectively)” and the “phosphorylation of Cdc2, compared with single mutants” value [2] was “wild-type Cdc2 appears to be phosphorylated more efficiently than either single mutant”. The “phosphorylation of Cdc2 in the presence of [γ-32P]ATP, autoradiography” value [2] was “Recombinant Myt1 efficiently phosphorylated cyclin-associated, wild-type Cdc2”, the “reduction” value [2] was “Treatment of wild-type Cdc2 with Myt1 caused a 90% reduction in its H1 kinase activity” and the “phosphorylation of Cdc2 mutant” value [3] was “the triple mutant T14A,Y15F, N133A was not a substrate for Myt1”. For the same binder, the “phosphorylation of Cdc2 mutant” value [4] was “Myt1 did not phosphorylate the T161A mutant of Cdc2 ( FIG. 2A ) on either tyrosine or threonine”, the “phosphorylation of Cdc2 in the presence of [γ-32P]ATP” value (monomeric Cdc2) was “Myt1 did not phosphorylate monomeric Cdc2” and the “phosphorylation of Cdc2 mutant” value [5] was “Myt1 can phosphorylate both the TI4A (Thr^14 changed to Ala) and Y15F (Tyr^15 changed to Phe) mutants of Cdc2”. For the same binder, the “reduction” value [5] was “a large reduction in activity (60 and 50%, respectively)”, the “phosphorylation and H1 kinase activity” value [6] was “the T14A, Y15F double mutant of Cdc2 was neither phosphorylated nor inactivated by Myt1” and the “phosphorylation of Cdc2 mutant” value [6] was “the T14A,Y15F double mutant was not a substrate for Myt1”. For the same binder, the phosphoamino acid analysis: share of 32P in phosphothreonine [7] was 96%, the phosphoamino acid analysis: phosphoserine [8] was under 0.7% and the phosphoamino acid analysis: phosphothreonine [8] was 75%. For the same binder, the phosphoamino acid analysis: phosphotyrosine [8] was 24%, the phosphoamino acid analysis: share of label in phosphotyrosine [9] was 89% and the phosphoamino acid analysis: share of 32P in phosphothreonine [10] was 77%. The phosphoamino acid analysis: share of 32P in phosphotyrosine [10] was 20%.

B2: M phase form of endogenous Xenopus Myt1 (from cytostatic factor-arrested egg extract) (protein)
chain: MPVPGDDMGETPLTRTPIPMPAYFSQAEQSFSLKKRGRSLCYTLPPRPPVKSALPVSRIFPNKQRSWSQPRPQSVSFRSPQNKTPASKLYDQSKGDTFFKQCFKSICKLGRGSFGEVYKVQSLEDGCFYAVKRSVSPFRGESDRQRKLQEVRKHERVGEHPNCLRFVRAWEEKRMLYLQTELCAGSLQQHSEEFAGSLPPRRVWNITCDLLHGLKHLHDRNLLHLDIKPANVFISFSGVCKLGDFGLMVELDGTEGSGEAQEGDPRYMAPELLDGIFSKAADVFSLGMSLLEVACNMELPKGGDGWQQLRQGHLPTEFTSDLPPDFLKVLSAMLEPDYRRRATVDWLLSLPAIRNAERWRMVTLAQERTLGKIIAVYQFIVWLLSFVFQWLNRPVIGFLHYCGLRALPRSPPCSPFPNHLGESSFSSDWDDESLGDDVFEVPPSPLATHRNLTYHGQELIGRHSPDLLSRPSLGSTSTPRNLSPEFSMRKRSALPLTPNVSRISQDSTGKSRSPSTSHSSSGFVDAEVQRTLFLPRNLLGMFDDATEQ
For B2, the “Cdc2-specific kinase activity of immunoprecipitated Myt1, relative to the interphase form” value [11] was “The M phase form was about one-fifth as active as the Myt1 protein from either type of interphase extract”.

B3: Endogenous Xenopus Myt1 from interphase egg extract (protein)
chain: MPVPGDDMGETPLTRTPIPMPAYFSQAEQSFSLKKRGRSLCYTLPPRPPVKSALPVSRIFPNKQRSWSQPRPQSVSFRSPQNKTPASKLYDQSKGDTFFKQCFKSICKLGRGSFGEVYKVQSLEDGCFYAVKRSVSPFRGESDRQRKLQEVRKHERVGEHPNCLRFVRAWEEKRMLYLQTELCAGSLQQHSEEFAGSLPPRRVWNITCDLLHGLKHLHDRNLLHLDIKPANVFISFSGVCKLGDFGLMVELDGTEGSGEAQEGDPRYMAPELLDGIFSKAADVFSLGMSLLEVACNMELPKGGDGWQQLRQGHLPTEFTSDLPPDFLKVLSAMLEPDYRRRATVDWLLSLPAIRNAERWRMVTLAQERTLGKIIAVYQFIVWLLSFVFQWLNRPVIGFLHYCGLRALPRSPPCSPFPNHLGESSFSSDWDDESLGDDVFEVPPSPLATHRNLTYHGQELIGRHSPDLLSRPSLGSTSTPRNLSPEFSMRKRSALPLTPNVSRISQDSTGKSRSPSTSHSSSGFVDAEVQRTLFLPRNLLGMFDDATEQ
For B3, the “phosphorylation of Cdc2 by immunoprecipitated Myt1” value [2] was “The immunoprecipitated Myt1 protein efficiently phosphorylated Cdc2 in both assays”, the “share of Cdc2 shifted to its Thr14-Tyr15 doubly phosphorylated form by the Myt1-depleted extract” value [2] was “the Myt1-depleted extract phosphorylated shifted only about 20% of the substrate” and the “share of Cdc2 shifted to its Thr14-Tyr15 doubly phosphorylated form by the control extract” value [2] was “the control extract shifted ˜80% of the Cdc2 to its Thr^14-Tyr^15 doubly phosphorylated form”. For the same binder, the “tyrosine phosphorylation of Cdc2 in Myt1-depleted extract, anti-phosphotyrosine immunoblot” value [2] was “The tyrosine phosphorylation of Cdc2 was dramatically reduced in the Myt1-depleted extract”.
